Molecular target: T1, Human CD137 ECD (human)
T1 construct: entry includes C-terminal His-tag and biotin acceptor peptide; also called human CD137 extracellular domain; 4-1BB
Assay: Biacore SPR, vs parent H183/L072

T1 sequence (chain, as listed by the source limits assumed): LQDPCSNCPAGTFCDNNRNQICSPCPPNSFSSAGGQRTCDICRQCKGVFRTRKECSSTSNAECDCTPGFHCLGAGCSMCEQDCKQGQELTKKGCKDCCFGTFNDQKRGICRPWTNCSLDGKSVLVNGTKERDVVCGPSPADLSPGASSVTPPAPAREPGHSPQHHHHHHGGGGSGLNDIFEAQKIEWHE

Row | Binder | fold change of affinity [fold]
1 | H183/L072 VL K50N (antibody, name in Kabat numbering, V domains shown, Dual-Ig) VH: QVQLVESGGGLVQPGRSLRLSCAASGFTFSNAWMHWVRQAPGKGLEWVAQIKDKGNAYAAYYAPSVKGRFTISRDDSKNSIYLQMNSLKTEDTAVYYCHYVHYASASTVLPAFGVDAWGQGTTVTVSS VL: DIVMTQSPLSLPVTPGEPASISCQASQELVHMNRNTYLHWYQQKPGQAPRLLIYNVSNRFPGVPDRFSGSGSGTDFTLKISRVEAEDVGVYYCAQGTSVPFTFGQGTKLEIK | 0.4
2 | H183/L072 VL K50Q (antibody, name in Kabat numbering, V domains shown, Dual-Ig) VH: QVQLVESGGGLVQPGRSLRLSCAASGFTFSNAWMHWVRQAPGKGLEWVAQIKDKGNAYAAYYAPSVKGRFTISRDDSKNSIYLQMNSLKTEDTAVYYCHYVHYASASTVLPAFGVDAWGQGTTVTVSS VL: DIVMTQSPLSLPVTPGEPASISCQASQELVHMNRNTYLHWYQQKPGQAPRLLIYQVSNRFPGVPDRFSGSGSGTDFTLKISRVEAEDVGVYYCAQGTSVPFTFGQGTKLEIK | 0.2
3 | H183/L072 VL K50V (antibody, name in Kabat numbering, V domains shown, Dual-Ig) VH: QVQLVESGGGLVQPGRSLRLSCAASGFTFSNAWMHWVRQAPGKGLEWVAQIKDKGNAYAAYYAPSVKGRFTISRDDSKNSIYLQMNSLKTEDTAVYYCHYVHYASASTVLPAFGVDAWGQGTTVTVSS VL: DIVMTQSPLSLPVTPGEPASISCQASQELVHMNRNTYLHWYQQKPGQAPRLLIYVVSNRFPGVPDRFSGSGSGTDFTLKISRVEAEDVGVYYCAQGTSVPFTFGQGTKLEIK | 0.3
4 | H183/L072 VL L27bA (antibody, name in Kabat numbering, V domains shown, Dual-Ig) VH: QVQLVESGGGLVQPGRSLRLSCAASGFTFSNAWMHWVRQAPGKGLEWVAQIKDKGNAYAAYYAPSVKGRFTISRDDSKNSIYLQMNSLKTEDTAVYYCHYVHYASASTVLPAFGVDAWGQGTTVTVSS VL: DIVMTQSPLSLPVTPGEPASISCQASQEAVHMNRNTYLHWYQQKPGQAPRLLIYKVSNRFPGVPDRFSGSGSGTDFTLKISRVEAEDVGVYYCAQGTSVPFTFGQGTKLEIK | 0.4
5 | H183/L072 VL K50R (antibody, name in Kabat numbering, V domains shown, Dual-Ig) VH: QVQLVESGGGLVQPGRSLRLSCAASGFTFSNAWMHWVRQAPGKGLEWVAQIKDKGNAYAAYYAPSVKGRFTISRDDSKNSIYLQMNSLKTEDTAVYYCHYVHYASASTVLPAFGVDAWGQGTTVTVSS VL: DIVMTQSPLSLPVTPGEPASISCQASQELVHMNRNTYLHWYQQKPGQAPRLLIYRVSNRFPGVPDRFSGSGSGTDFTLKISRVEAEDVGVYYCAQGTSVPFTFGQGTKLEIK | 1.7
6 | H183/L072 VL K50T (antibody, name in Kabat numbering, V domains shown, Dual-Ig) VH: QVQLVESGGGLVQPGRSLRLSCAASGFTFSNAWMHWVRQAPGKGLEWVAQIKDKGNAYAAYYAPSVKGRFTISRDDSKNSIYLQMNSLKTEDTAVYYCHYVHYASASTVLPAFGVDAWGQGTTVTVSS VL: DIVMTQSPLSLPVTPGEPASISCQASQELVHMNRNTYLHWYQQKPGQAPRLLIYTVSNRFPGVPDRFSGSGSGTDFTLKISRVEAEDVGVYYCAQGTSVPFTFGQGTKLEIK | 0.2
7 | H183/L072 VL K50P (antibody, name in Kabat numbering, V domains shown, Dual-Ig) VH: QVQLVESGGGLVQPGRSLRLSCAASGFTFSNAWMHWVRQAPGKGLEWVAQIKDKGNAYAAYYAPSVKGRFTISRDDSKNSIYLQMNSLKTEDTAVYYCHYVHYASASTVLPAFGVDAWGQGTTVTVSS VL: DIVMTQSPLSLPVTPGEPASISCQASQELVHMNRNTYLHWYQQKPGQAPRLLIYPVSNRFPGVPDRFSGSGSGTDFTLKISRVEAEDVGVYYCAQGTSVPFTFGQGTKLEIK | 0
8 | H183/L072 VL K50W (antibody, name in Kabat numbering, V domains shown, Dual-Ig) VH: QVQLVESGGGLVQPGRSLRLSCAASGFTFSNAWMHWVRQAPGKGLEWVAQIKDKGNAYAAYYAPSVKGRFTISRDDSKNSIYLQMNSLKTEDTAVYYCHYVHYASASTVLPAFGVDAWGQGTTVTVSS VL: DIVMTQSPLSLPVTPGEPASISCQASQELVHMNRNTYLHWYQQKPGQAPRLLIYWVSNRFPGVPDRFSGSGSGTDFTLKISRVEAEDVGVYYCAQGTSVPFTFGQGTKLEIK | 0
9 | H183/L072 VL K50S (antibody, name in Kabat numbering, V domains shown, Dual-Ig) VH: QVQLVESGGGLVQPGRSLRLSCAASGFTFSNAWMHWVRQAPGKGLEWVAQIKDKGNAYAAYYAPSVKGRFTISRDDSKNSIYLQMNSLKTEDTAVYYCHYVHYASASTVLPAFGVDAWGQGTTVTVSS VL: DIVMTQSPLSLPVTPGEPASISCQASQELVHMNRNTYLHWYQQKPGQAPRLLIYSVSNRFPGVPDRFSGSGSGTDFTLKISRVEAEDVGVYYCAQGTSVPFTFGQGTKLEIK | 0

Other lines, results leading:

Row | fold change of affinity [fold] | Binder
10 | 0.3 | H183/L072 VL L27bK (antibody, name in Kabat numbering, V domains shown, Dual-Ig) VH: QVQLVESGGGLVQPGRSLRLSCAASGFTFSNAWMHWVRQAPGKGLEWVAQIKDKGNAYAAYYAPSVKGRFTISRDDSKNSIYLQMNSLKTEDTAVYYCHYVHYASASTVLPAFGVDAWGQGTTVTVSS VL: DIVMTQSPLSLPVTPGEPASISCQASQEKVHMNRNTYLHWYQQKPGQAPRLLIYKVSNRFPGVPDRFSGSGSGTDFTLKISRVEAEDVGVYYCAQGTSVPFTFGQGTKLEIK
11 | 0.2 | H183/L072 VL L27bQ (antibody, name in Kabat numbering, V domains shown, Dual-Ig) VH: QVQLVESGGGLVQPGRSLRLSCAASGFTFSNAWMHWVRQAPGKGLEWVAQIKDKGNAYAAYYAPSVKGRFTISRDDSKNSIYLQMNSLKTEDTAVYYCHYVHYASASTVLPAFGVDAWGQGTTVTVSS VL: DIVMTQSPLSLPVTPGEPASISCQASQEQVHMNRNTYLHWYQQKPGQAPRLLIYKVSNRFPGVPDRFSGSGSGTDFTLKISRVEAEDVGVYYCAQGTSVPFTFGQGTKLEIK
12 | 0.8 | H183/L072 VL L27bP (antibody, name in Kabat numbering, V domains shown, Dual-Ig) VH: QVQLVESGGGLVQPGRSLRLSCAASGFTFSNAWMHWVRQAPGKGLEWVAQIKDKGNAYAAYYAPSVKGRFTISRDDSKNSIYLQMNSLKTEDTAVYYCHYVHYASASTVLPAFGVDAWGQGTTVTVSS VL: DIVMTQSPLSLPVTPGEPASISCQASQEPVHMNRNTYLHWYQQKPGQAPRLLIYKVSNRFPGVPDRFSGSGSGTDFTLKISRVEAEDVGVYYCAQGTSVPFTFGQGTKLEIK
13 | 0.4 | H183/L072 VL L27bT (antibody, name in Kabat numbering, V domains shown, Dual-Ig) VH: QVQLVESGGGLVQPGRSLRLSCAASGFTFSNAWMHWVRQAPGKGLEWVAQIKDKGNAYAAYYAPSVKGRFTISRDDSKNSIYLQMNSLKTEDTAVYYCHYVHYASASTVLPAFGVDAWGQGTTVTVSS VL: DIVMTQSPLSLPVTPGEPASISCQASQETVHMNRNTYLHWYQQKPGQAPRLLIYKVSNRFPGVPDRFSGSGSGTDFTLKISRVEAEDVGVYYCAQGTSVPFTFGQGTKLEIK
14 | 0.2 | H183/L072 VL L27bD (antibody, name in Kabat numbering, V domains shown, Dual-Ig) VH: QVQLVESGGGLVQPGRSLRLSCAASGFTFSNAWMHWVRQAPGKGLEWVAQIKDKGNAYAAYYAPSVKGRFTISRDDSKNSIYLQMNSLKTEDTAVYYCHYVHYASASTVLPAFGVDAWGQGTTVTVSS VL: DIVMTQSPLSLPVTPGEPASISCQASQEDVHMNRNTYLHWYQQKPGQAPRLLIYKVSNRFPGVPDRFSGSGSGTDFTLKISRVEAEDVGVYYCAQGTSVPFTFGQGTKLEIK
15 | 0.3 | H183/L072 VL L27bS (antibody, name in Kabat numbering, V domains shown, Dual-Ig) VH: QVQLVESGGGLVQPGRSLRLSCAASGFTFSNAWMHWVRQAPGKGLEWVAQIKDKGNAYAAYYAPSVKGRFTISRDDSKNSIYLQMNSLKTEDTAVYYCHYVHYASASTVLPAFGVDAWGQGTTVTVSS VL: DIVMTQSPLSLPVTPGEPASISCQASQESVHMNRNTYLHWYQQKPGQAPRLLIYKVSNRFPGVPDRFSGSGSGTDFTLKISRVEAEDVGVYYCAQGTSVPFTFGQGTKLEIK
16 | 0.1 | H183/L072 VL L27bG (antibody, name in Kabat numbering, V domains shown, Dual-Ig) VH: QVQLVESGGGLVQPGRSLRLSCAASGFTFSNAWMHWVRQAPGKGLEWVAQIKDKGNAYAAYYAPSVKGRFTISRDDSKNSIYLQMNSLKTEDTAVYYCHYVHYASASTVLPAFGVDAWGQGTTVTVSS VL: DIVMTQSPLSLPVTPGEPASISCQASQEGVHMNRNTYLHWYQQKPGQAPRLLIYKVSNRFPGVPDRFSGSGSGTDFTLKISRVEAEDVGVYYCAQGTSVPFTFGQGTKLEIK
17 | 0.3 | H183/L072 VL L27bH (antibody, name in Kabat numbering, V domains shown, Dual-Ig) VH: QVQLVESGGGLVQPGRSLRLSCAASGFTFSNAWMHWVRQAPGKGLEWVAQIKDKGNAYAAYYAPSVKGRFTISRDDSKNSIYLQMNSLKTEDTAVYYCHYVHYASASTVLPAFGVDAWGQGTTVTVSS VL: DIVMTQSPLSLPVTPGEPASISCQASQEHVHMNRNTYLHWYQQKPGQAPRLLIYKVSNRFPGVPDRFSGSGSGTDFTLKISRVEAEDVGVYYCAQGTSVPFTFGQGTKLEIK
18 | 0.4 | H183/L072 VL L27bM (antibody, name in Kabat numbering, V domains shown, Dual-Ig) VH: QVQLVESGGGLVQPGRSLRLSCAASGFTFSNAWMHWVRQAPGKGLEWVAQIKDKGNAYAAYYAPSVKGRFTISRDDSKNSIYLQMNSLKTEDTAVYYCHYVHYASASTVLPAFGVDAWGQGTTVTVSS VL: DIVMTQSPLSLPVTPGEPASISCQASQEMVHMNRNTYLHWYQQKPGQAPRLLIYKVSNRFPGVPDRFSGSGSGTDFTLKISRVEAEDVGVYYCAQGTSVPFTFGQGTKLEIK
19 | 0.3 | H183/L072 VL L27bF (antibody, name in Kabat numbering, V domains shown, Dual-Ig) VH: QVQLVESGGGLVQPGRSLRLSCAASGFTFSNAWMHWVRQAPGKGLEWVAQIKDKGNAYAAYYAPSVKGRFTISRDDSKNSIYLQMNSLKTEDTAVYYCHYVHYASASTVLPAFGVDAWGQGTTVTVSS VL: DIVMTQSPLSLPVTPGEPASISCQASQEFVHMNRNTYLHWYQQKPGQAPRLLIYKVSNRFPGVPDRFSGSGSGTDFTLKISRVEAEDVGVYYCAQGTSVPFTFGQGTKLEIK
20 | 0.2 | H183/L072 VL L27bE (antibody, name in Kabat numbering, V domains shown, Dual-Ig) VH: QVQLVESGGGLVQPGRSLRLSCAASGFTFSNAWMHWVRQAPGKGLEWVAQIKDKGNAYAAYYAPSVKGRFTISRDDSKNSIYLQMNSLKTEDTAVYYCHYVHYASASTVLPAFGVDAWGQGTTVTVSS VL: DIVMTQSPLSLPVTPGEPASISCQASQEEVHMNRNTYLHWYQQKPGQAPRLLIYKVSNRFPGVPDRFSGSGSGTDFTLKISRVEAEDVGVYYCAQGTSVPFTFGQGTKLEIK
21 | 1.1 | H183/L072 VL L27bI (antibody, name in Kabat numbering, V domains shown, Dual-Ig) VH: QVQLVESGGGLVQPGRSLRLSCAASGFTFSNAWMHWVRQAPGKGLEWVAQIKDKGNAYAAYYAPSVKGRFTISRDDSKNSIYLQMNSLKTEDTAVYYCHYVHYASASTVLPAFGVDAWGQGTTVTVSS VL: DIVMTQSPLSLPVTPGEPASISCQASQEIVHMNRNTYLHWYQQKPGQAPRLLIYKVSNRFPGVPDRFSGSGSGTDFTLKISRVEAEDVGVYYCAQGTSVPFTFGQGTKLEIK

— patent US20210388087A1 (Chugai, published 2021)
